This data set concerns the molecule itself. The data set can be described thus: pulsed dipolar ESR spectroscopy.

Results on one protein are retold here after publication PMC2873776 (Biochemistry, 2010).

Usually stoichiometry N stands for the number of molecules, sites or subunits per partner or assembly.

B1: Tm14C N125C homodimer, spin-labeled (domain or fragment)
chain: RRIEEVKERFVNLNRLFQELVGDFQAKSDQLVSVIQDMEKISENIMEELKKSGTNVDQIVERVKEASSQIGETLENIRSIEKLIQCIMRIARETNILALNATIEAARAGEAGKGFMIVANEVQNLSNETNEVTKQIVEKAREILESSQRSLENLEFMANLFETVGKTLQNMVRF
modifications: MTSSL nitroxide spin label on Cys125
Consider B1, for which the “stoichiometry N” value was 2.
